# Measurements as given in patent publication US11965039B2, “Compstatin analogues and their medical uses” (priority 2018, dated 2024).
# Starred links: 1 amine or outer side, 2 acyl side, 3 side chain; linkers in the order of their positions; H or OH if unused. Positions of bridges follow the written chain, without caps; N, C: chain ends. Non-standard residues stand in square brackets, D forms with d. Groups on a side chain read outwards from the residue. No end group written: not given here. *: point of attachment. X1 = K(γGlu-G-γGlu-17-carboxy-heptadecanoyl), O=C(O)CCCCCCCCCCCCCCCCC(=O)N[C@@H](CCC(=O)NCC(=O)N[C@@H](CCC(=O)NCCCC[C@H](N[*:1])C(=O)[*:2])C(=O)O)C(=O)O; Trp(1-Me) = Cn1cc(C[C@H](N)C(=O)O)c2ccccc21; C18 diacid = O=C(O)CCCCCCCCCCCCCCCCC(=O)*; γGlu = O=C(O)[C@H](CCC(=O)[*:2])N[*:1]; AEEA = NCCOCCOCC(=O)O; Sar = CNCC(=O)O
# B1: Compound 126 (peptide)
# peptide: Ac-SEFCI[Trp(1-Me)]QDWGEHRCTEGE-{AEEA-AEEA-X1-NH2}
# modifications: disulfide 4-14
# SMILES: CC[C@H](C)[C@@H]1NC(=O)[C@@H](NC(=O)[C@H](Cc2ccccc2)NC(=O)[C@H](CCC(=O)O)NC(=O)[C@H](CO)NC(C)=O)CSSC[C@@H](C(=O)N[C@H](C(=O)N[C@@H](CCC(=O)O)C(=O)NCC(=O)N[C@@H](CCC(=O)O)C(=O)NCCOCCOCC(=O)NCCOCCOCC(=O)N[C@@H](CCCCNC(=O)CC[C@H](NC(=O)CNC(=O)CC[C@H](NC(=O)CCCCCCCCCCCCCCCCC(=O)O)C(=O)O)C(=O)O)C(N)=O)[C@@H](C)O)NC(=O)[C@H](CCCNC(=N)N)NC(=O)[C@H](Cc2c[nH]cn2)NC(=O)[C@H](CCC(=O)O)NC(=O)CNC(=O)[C@H](Cc2c[nH]c3ccccc23)NC(=O)[C@H](CC(=O)O)NC(=O)[C@H](CCC(N)=O)NC(=O)[C@H](Cc2cn(C)c3ccccc23)NC1=O
# B2: Compound 130 (peptide)
# peptide: Ac-SEFCI[Trp(1-Me)]QDWGEHRCTEGEGGGK([γGlu-Gly-γGlu-C18 diacid])-NH2
# modifications: disulfide 4-14
# SMILES: CC[C@H](C)[C@@H]1NC(=O)[C@@H](NC(=O)[C@H](Cc2ccccc2)NC(=O)[C@H](CCC(=O)O)NC(=O)[C@H](CO)NC(C)=O)CSSC[C@@H](C(=O)N[C@H](C(=O)N[C@@H](CCC(=O)O)C(=O)NCC(=O)N[C@@H](CCC(=O)O)C(=O)NCC(=O)NCC(=O)NCC(=O)N[C@@H](CCCCNC(=O)CC[C@H](NC(=O)CNC(=O)CC[C@H](NC(=O)CCCCCCCCCCCCCCCCC(=O)O)C(=O)O)C(=O)O)C(N)=O)[C@@H](C)O)NC(=O)[C@H](CCCNC(=N)N)NC(=O)[C@H](Cc2c[nH]cn2)NC(=O)[C@H](CCC(=O)O)NC(=O)CNC(=O)[C@H](Cc2c[nH]c3ccccc23)NC(=O)[C@H](CC(=O)O)NC(=O)[C@H](CCC(N)=O)NC(=O)[C@H](Cc2cn(C)c3ccccc23)NC1=O
# B3: Compound 141 (peptide)
# peptide: Ac-SEFCI[Trp(1-Me)]QDWGEHRC[Sar]EGESESK([γGlu-C18 diacid])-NH2
# modifications: disulfide 4-14
# SMILES: CC[C@H](C)[C@@H]1NC(=O)[C@@H](NC(=O)[C@H](Cc2ccccc2)NC(=O)[C@H](CCC(=O)O)NC(=O)[C@H](CO)NC(C)=O)CSSC[C@@H](C(=O)N(C)CC(=O)N[C@@H](CCC(=O)O)C(=O)NCC(=O)N[C@@H](CCC(=O)O)C(=O)N[C@@H](CO)C(=O)N[C@@H](CCC(=O)O)C(=O)N[C@@H](CO)C(=O)N[C@@H](CCCCNC(=O)CC[C@H](NC(=O)CCCCCCCCCCCCCCCCC(=O)O)C(=O)O)C(N)=O)NC(=O)[C@H](CCCNC(=N)N)NC(=O)[C@H](Cc2c[nH]cn2)NC(=O)[C@H](CCC(=O)O)NC(=O)CNC(=O)[C@H](Cc2c[nH]c3ccccc23)NC(=O)[C@H](CC(=O)O)NC(=O)[C@H](CCC(N)=O)NC(=O)[C@H](Cc2cn(C)c3ccccc23)NC1=O
# B4: Compound 43 (peptide)
# peptide: Ac-FCIWQDWGEHRCTGAE-NH2
# modifications: disulfide 2-12
# SMILES: CC[C@H](C)[C@@H]1NC(=O)[C@@H](NC(=O)[C@H](Cc2ccccc2)NC(C)=O)CSSC[C@@H](C(=O)N[C@H](C(=O)NCC(=O)N[C@@H](C)C(=O)N[C@@H](CCC(=O)O)C(N)=O)[C@@H](C)O)NC(=O)[C@H](CCCNC(=N)N)NC(=O)[C@H](Cc2c[nH]cn2)NC(=O)[C@H](CCC(=O)O)NC(=O)CNC(=O)[C@H](Cc2c[nH]c3ccccc23)NC(=O)[C@H](CC(=O)O)NC(=O)[C@H](CCC(N)=O)NC(=O)[C@H](Cc2c[nH]c3ccccc23)NC1=O
# B5: Compound 139 (peptide)
# peptide: Ac-SEFCI[Trp(1-Me)]QDWGEHRC[Sar]EGESESK([γGlu-Gly-γGlu-C18 diacid])-NH2
# modifications: disulfide 4-14
# SMILES: CC[C@H](C)[C@@H]1NC(=O)[C@@H](NC(=O)[C@H](Cc2ccccc2)NC(=O)[C@H](CCC(=O)O)NC(=O)[C@H](CO)NC(C)=O)CSSC[C@@H](C(=O)N(C)CC(=O)N[C@@H](CCC(=O)O)C(=O)NCC(=O)N[C@@H](CCC(=O)O)C(=O)N[C@@H](CO)C(=O)N[C@@H](CCC(=O)O)C(=O)N[C@@H](CO)C(=O)N[C@@H](CCCCNC(=O)CC[C@H](NC(=O)CNC(=O)CC[C@H](NC(=O)CCCCCCCCCCCCCCCCC(=O)O)C(=O)O)C(=O)O)C(N)=O)NC(=O)[C@H](CCCNC(=N)N)NC(=O)[C@H](Cc2c[nH]cn2)NC(=O)[C@H](CCC(=O)O)NC(=O)CNC(=O)[C@H](Cc2c[nH]c3ccccc23)NC(=O)[C@H](CC(=O)O)NC(=O)[C@H](CCC(N)=O)NC(=O)[C@H](Cc2cn(C)c3ccccc23)NC1=O
# B6: Compound 23 (peptide)
# peptide: Ac-FCIWQDWGEHRCT-NH2
# modifications: disulfide 2-12
# SMILES: CC[C@H](C)[C@@H]1NC(=O)[C@@H](NC(=O)[C@H](Cc2ccccc2)NC(C)=O)CSSC[C@@H](C(=O)N[C@H](C(N)=O)[C@@H](C)O)NC(=O)[C@H](CCCNC(=N)N)NC(=O)[C@H](Cc2c[nH]cn2)NC(=O)[C@H](CCC(=O)O)NC(=O)CNC(=O)[C@H](Cc2c[nH]c3ccccc23)NC(=O)[C@H](CC(=O)O)NC(=O)[C@H](CCC(N)=O)NC(=O)[C@H](Cc2c[nH]c3ccccc23)NC1=O
# B7: Compound 61 (peptide)
# peptide: Ac-FCI[Trp(1-Me)]QDWGEHRCTGAES-NH2
# modifications: disulfide 2-12
# SMILES: CC[C@H](C)[C@@H]1NC(=O)[C@@H](NC(=O)[C@H](Cc2ccccc2)NC(C)=O)CSSC[C@@H](C(=O)N[C@H](C(=O)NCC(=O)N[C@@H](C)C(=O)N[C@@H](CCC(=O)O)C(=O)N[C@@H](CO)C(N)=O)[C@@H](C)O)NC(=O)[C@H](CCCNC(=N)N)NC(=O)[C@H](Cc2c[nH]cn2)NC(=O)[C@H](CCC(=O)O)NC(=O)CNC(=O)[C@H](Cc2c[nH]c3ccccc23)NC(=O)[C@H](CC(=O)O)NC(=O)[C@H](CCC(N)=O)NC(=O)[C@H](Cc2cn(C)c3ccccc23)NC1=O
# B8: Compound 140 (peptide)
# peptide: Ac-SEFCI[Trp(1-Me)]QDWGEHRC[Sar]EGE[AEEA]ES-{X1-NH2}
# modifications: disulfide 4-14
# SMILES: CC[C@H](C)[C@@H]1NC(=O)[C@@H](NC(=O)[C@H](Cc2ccccc2)NC(=O)[C@H](CCC(=O)O)NC(=O)[C@H](CO)NC(C)=O)CSSC[C@@H](C(=O)N(C)CC(=O)N[C@@H](CCC(=O)O)C(=O)NCC(=O)N[C@@H](CCC(=O)O)C(=O)NCCOCCOCC(=O)N[C@@H](CCC(=O)O)C(=O)N[C@@H](CO)C(=O)N[C@@H](CCCCNC(=O)CC[C@H](NC(=O)CNC(=O)CC[C@H](NC(=O)CCCCCCCCCCCCCCCCC(=O)O)C(=O)O)C(=O)O)C(N)=O)NC(=O)[C@H](CCCNC(=N)N)NC(=O)[C@H](Cc2c[nH]cn2)NC(=O)[C@H](CCC(=O)O)NC(=O)CNC(=O)[C@H](Cc2c[nH]c3ccccc23)NC(=O)[C@H](CC(=O)O)NC(=O)[C@H](CCC(N)=O)NC(=O)[C@H](Cc2cn(C)c3ccccc23)NC1=O
# B9: Compound 29 (peptide)
# peptide: Ac-EGSAICIWQDWGEHRCT-NH2
# modifications: disulfide 6-16
# SMILES: CC[C@H](C)[C@H](NC(=O)[C@H](C)NC(=O)[C@H](CO)NC(=O)CNC(=O)[C@H](CCC(=O)O)NC(C)=O)C(=O)N[C@H]1CSSC[C@@H](C(=O)N[C@H](C(N)=O)[C@@H](C)O)NC(=O)[C@H](CCCNC(=N)N)NC(=O)[C@H](Cc2c[nH]cn2)NC(=O)[C@H](CCC(=O)O)NC(=O)CNC(=O)[C@H](Cc2c[nH]c3ccccc23)NC(=O)[C@H](CC(=O)O)NC(=O)[C@H](CCC(N)=O)NC(=O)[C@H](Cc2c[nH]c3ccccc23)NC(=O)[C@H]([C@@H](C)CC)NC1=O
# B10: Compound 142 (peptide)
# peptide: Ac-SEFCI[Trp(1-Me)]QDWGEHRCTEGE
# modifications: disulfide 4-14; not fully specified (C-terminus); printed as Ac-SEFC(1)I[1-Me-Trp]QDWGEHRC(1)TEGE[Peg3]ES-K([17-carboxy-heptadecanoyl][γGlu])-NH2
# Biological target: T1, Human C3 (Complement tech cat #A113c) (human, UniProt P01024 23-1663)
# T1 construct: Purified protein immobilised by amine coupling in the SPR assay; in the haemolysis assay it is the C3 of diluted human serum; Native C3 consists of a beta and an alpha chain cut from one precursor; also called C3 protein
# T1 sequence (P01024 23-1663 limits assumed): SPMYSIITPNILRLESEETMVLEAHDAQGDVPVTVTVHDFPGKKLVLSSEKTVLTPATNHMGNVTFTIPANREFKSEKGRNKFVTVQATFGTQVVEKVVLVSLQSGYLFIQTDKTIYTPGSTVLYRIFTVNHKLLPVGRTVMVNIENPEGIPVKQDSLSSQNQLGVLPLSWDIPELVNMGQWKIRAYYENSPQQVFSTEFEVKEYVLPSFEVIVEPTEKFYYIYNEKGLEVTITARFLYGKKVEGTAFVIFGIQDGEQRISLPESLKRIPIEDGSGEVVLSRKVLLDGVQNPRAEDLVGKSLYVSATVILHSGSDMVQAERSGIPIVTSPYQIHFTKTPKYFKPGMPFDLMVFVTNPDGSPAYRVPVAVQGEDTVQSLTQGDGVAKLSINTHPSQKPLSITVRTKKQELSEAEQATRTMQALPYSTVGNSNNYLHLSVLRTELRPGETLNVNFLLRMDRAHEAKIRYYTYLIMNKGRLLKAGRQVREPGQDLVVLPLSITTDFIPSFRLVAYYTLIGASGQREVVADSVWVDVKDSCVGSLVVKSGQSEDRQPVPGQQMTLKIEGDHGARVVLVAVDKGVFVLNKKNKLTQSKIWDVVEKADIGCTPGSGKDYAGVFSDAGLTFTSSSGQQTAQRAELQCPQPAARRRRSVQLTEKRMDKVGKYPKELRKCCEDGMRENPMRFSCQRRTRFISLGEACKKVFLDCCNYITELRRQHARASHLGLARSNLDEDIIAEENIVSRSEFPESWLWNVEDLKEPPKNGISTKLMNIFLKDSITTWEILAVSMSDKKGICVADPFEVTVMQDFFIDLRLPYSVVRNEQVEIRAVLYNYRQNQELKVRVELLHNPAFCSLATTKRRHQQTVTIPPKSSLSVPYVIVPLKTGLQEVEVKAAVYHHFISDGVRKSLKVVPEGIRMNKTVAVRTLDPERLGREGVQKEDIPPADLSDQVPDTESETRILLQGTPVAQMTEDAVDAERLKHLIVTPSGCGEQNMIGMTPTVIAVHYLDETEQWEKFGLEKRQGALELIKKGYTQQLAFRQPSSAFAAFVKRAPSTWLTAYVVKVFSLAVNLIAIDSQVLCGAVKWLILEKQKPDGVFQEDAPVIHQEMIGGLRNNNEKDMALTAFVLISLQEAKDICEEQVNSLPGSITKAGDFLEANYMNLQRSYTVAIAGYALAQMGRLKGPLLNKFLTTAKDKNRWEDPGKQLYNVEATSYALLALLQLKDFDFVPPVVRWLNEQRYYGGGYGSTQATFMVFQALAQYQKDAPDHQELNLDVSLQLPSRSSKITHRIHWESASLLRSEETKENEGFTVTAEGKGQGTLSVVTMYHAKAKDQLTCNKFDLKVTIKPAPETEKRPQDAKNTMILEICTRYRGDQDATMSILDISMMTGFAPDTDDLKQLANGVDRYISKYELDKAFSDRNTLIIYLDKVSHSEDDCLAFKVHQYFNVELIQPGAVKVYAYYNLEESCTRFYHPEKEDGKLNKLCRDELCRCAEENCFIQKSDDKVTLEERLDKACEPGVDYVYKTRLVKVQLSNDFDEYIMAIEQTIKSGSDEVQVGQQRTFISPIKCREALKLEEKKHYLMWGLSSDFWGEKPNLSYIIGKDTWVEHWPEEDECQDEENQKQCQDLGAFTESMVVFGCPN
# Assay: SPR (Biacore T200), human C3 immobilised, peptide injected, 1:1 fit
# Description: Surface plasmon resonance (SPR) was used to characterize peptides with respect to their binding affinity (Kd) for C3. Human C3 (Complement tech cat #A113c) was immobilised on individual flow cells of CM5 sensor chips (GE Healthcare) using standard amine coupling to a density of approximately 3000 resonance units (RU) in a buffer consisting of 10 mM phosphate pH 7.4, 150 mM NaCl, 0.05% Tween20.
# For interaction experiments a multi-cycle experiment approach was used and performed using a BiacoreT200™ instrument (GE Healthcare) at 25° C. Peptides were injected in increasing concentration series (6-8 different concentrations) for 60-120 sat a flow rate of 30 µL/min in a buffer consisting of 10 mM Tris buffer at pH 7.4, with 150 mM NaCl and 0.05% Tween20. This was followed by a dissociation period for up to 10 min. The C3 surface was regenerated between runs by a 45 s injection of 3 M MgCl_2.
row,Kd [nM],Binder
1,6.5,"Ac-SEFCI[Trp(1-Me)]QDWGEHRC[Sar]EGE-{AEEA-AEEA-K(γGlu-Gly-γGlu-19-carboxy-nonadecanoyl)-NH2} (disulfide 4-14, also called comp 128) [Compound 128]"
2,5.2,B1
3,4.4,B2
4,6.6,B3
5,3.3,B4
6,7.4,B5
7,2.8,B6
8,0.33,B7
9,8.5,Ac-SEFCI[Trp(1-Me)]QDWGEHRC[Sar]EGE-{AEEA-AEEA-K(γGlu-Gly-γGlu-15-carboxy-pentadecanoyl)-NH2} (disulfide 4-14) [Compound 127]
10,7.6,B8
11,21,B9
12,4.8,B10

# Biological target: T1, Human C3 (Complement tech cat #A113c)
# Assay: cell-based or functional assay
row,Binder,inhibition of hemolysis IC50 [nM]
1,"Ac-SEFCI[Trp(1-Me)]QDWGEHRC[Sar]EGE-{AEEA-AEEA-K(γGlu-Gly-γGlu-19-carboxy-nonadecanoyl)-NH2} (disulfide 4-14, also called comp 128) [Compound 128]",< 100
2,B1,< 100
3,B2,< 100
4,B3,< 100
5,B4,< 100
6,B5,< 100
7,B6,< 100
8,B7,< 100
9,Ac-SEFCI[Trp(1-Me)]QDWGEHRC[Sar]EGE-{AEEA-AEEA-K(γGlu-Gly-γGlu-15-carboxy-pentadecanoyl)-NH2} (disulfide 4-14) [Compound 127],< 100
10,B8,< 100
11,B9,< 100
12,B10,< 100
